Data as given in article doi:10.1101/2020.12.10.418392.

Molecular target: T1, RLP42-GFP (A. thaliana) (UniProt Q9LJS0)
T1 sequence: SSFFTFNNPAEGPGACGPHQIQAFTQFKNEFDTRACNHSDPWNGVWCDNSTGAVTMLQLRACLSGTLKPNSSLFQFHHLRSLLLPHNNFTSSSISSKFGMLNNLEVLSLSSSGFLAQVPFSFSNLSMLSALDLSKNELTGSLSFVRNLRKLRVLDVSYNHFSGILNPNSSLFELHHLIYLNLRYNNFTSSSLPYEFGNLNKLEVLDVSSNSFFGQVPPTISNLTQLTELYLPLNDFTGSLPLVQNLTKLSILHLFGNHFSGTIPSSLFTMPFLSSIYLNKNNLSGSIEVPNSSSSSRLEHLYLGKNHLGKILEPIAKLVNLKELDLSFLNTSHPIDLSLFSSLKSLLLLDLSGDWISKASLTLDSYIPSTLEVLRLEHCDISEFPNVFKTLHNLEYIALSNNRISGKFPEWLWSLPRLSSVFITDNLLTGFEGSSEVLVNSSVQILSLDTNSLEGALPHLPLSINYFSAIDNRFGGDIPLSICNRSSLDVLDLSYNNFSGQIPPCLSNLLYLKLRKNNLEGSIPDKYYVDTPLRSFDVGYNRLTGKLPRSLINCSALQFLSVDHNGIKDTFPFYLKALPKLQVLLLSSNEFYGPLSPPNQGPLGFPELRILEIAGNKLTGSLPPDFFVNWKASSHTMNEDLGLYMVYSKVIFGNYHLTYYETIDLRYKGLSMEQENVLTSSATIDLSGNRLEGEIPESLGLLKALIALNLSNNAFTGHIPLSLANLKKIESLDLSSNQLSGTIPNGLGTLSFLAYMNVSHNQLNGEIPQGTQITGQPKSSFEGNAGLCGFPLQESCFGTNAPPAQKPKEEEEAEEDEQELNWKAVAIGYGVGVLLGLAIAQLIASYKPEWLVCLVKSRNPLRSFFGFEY

B1: Oom-pg9 (peptide)
peptide: AKNTDGFDL
With B1 the EC50 of ethylene production in A. thaliana Col-0 leaves was 1300 nM.
